Test results published in patent publication US20190085043A1, “FUSION PROTEINS FOR TREATING A METABOLIC SYNDROME” (SANOFI, priority 2012, published 2019).

Assays:
human FGFR1c plus KLB = human FGFR1c plus KLB (Homo sapiens, UniProt P11362+Q86Z14); experiment: FGF-21 receptor autophosphorylation In-Cell Western (pFGFR ICW) in CHO cells; type: cell-based; conditions: CHO cells overexpressing human FGFR1c plus KLB, FGFR autophosphorylation
Experimental: FIG. 1B-1 to FIG. 1B-4) The FGF induced FGFR autophosphorylation was measured via a specific and highly sensitive In-Cell Western (ICW) in CHO cells stably overexpressing human FGFR1c together with human betaKlotho (KLB). In-Cell Western assay is an immunocytochemical assay usually performed in microplate format. Target-specific primary antibodies and infrared-labelled secondary antibodies are used to detect target proteins in fixed cells, and fluorescent signal from each well is quantified (e.g. the In-Cell Western assay from LI-COR Biosciences, USA).
The cellular efficacy of FGF-21 or FGF-21 fusion proteins was measured using a specific and highly sensitive In-Cell Western (ICW) assay. The ICW assay is an immunocytochemical assay usually performed in microplate format.
(§1) CHO Flp-In cells (Invitrogen, Darmstadt, Germany) stable expressing the human FGFR1c together with human beta-Klotho (KLB) were used for FGF-21 receptor autophosphorylation assay using In-Cell Western. In order to determine the receptor autophosphorylation level, 2×10^4 cells/well were seeded into 96-well plates and grown for 48 h. […] Subsequently cells were washed again with PBS+0.1% Tween20 and infrared dye signals were quantified with an Odyssey imager (LICOR, Bad Homburg, Germany). Results were normalized by quantification of DNA with TO-PRO3 dye (Invitrogen, Karlsruhe, Germany). […]

MAP kinase ERK1/2 = experiment: ERK1/2 phosphorylation In-Cell Western (pERK ICW) in CHO cells overexpressing human FGFR1c plus KLB; type: cell-based; conditions: ERK1/2 phosphorylation Thr202/Tyr204
Experimental: FIG. 1C-1 to FIG. 1C-3) Dose dependent in vitro activation of the downstream effector ERK. Activation of the downstream effector of FGF signaling, the MAP kinase ERK1/2, was determined via In-Cell Western assay in CHO cells stably overexpressing human FGFR1c and KLB using an antibody directed against the ERK1/2 phosphorylated amino acid residues threonine 202 and tyrosine 204.
as §1, with “h. Cells were serum starved with serum-free medium Ham's F-12 Nutrient Mix with GlutaMAX (Gibco, Darmstadt, Germany) for 3-4 h.” for “h.”
To assess the activation of a downstream effector of FGFR signalling by FGF-21-GLP-1RA fusion proteins the phosphorylation of MAP kinases ERK1/2 were analysed. […]

Sequence of human FGFR1c plus KLB (P11362 22-822): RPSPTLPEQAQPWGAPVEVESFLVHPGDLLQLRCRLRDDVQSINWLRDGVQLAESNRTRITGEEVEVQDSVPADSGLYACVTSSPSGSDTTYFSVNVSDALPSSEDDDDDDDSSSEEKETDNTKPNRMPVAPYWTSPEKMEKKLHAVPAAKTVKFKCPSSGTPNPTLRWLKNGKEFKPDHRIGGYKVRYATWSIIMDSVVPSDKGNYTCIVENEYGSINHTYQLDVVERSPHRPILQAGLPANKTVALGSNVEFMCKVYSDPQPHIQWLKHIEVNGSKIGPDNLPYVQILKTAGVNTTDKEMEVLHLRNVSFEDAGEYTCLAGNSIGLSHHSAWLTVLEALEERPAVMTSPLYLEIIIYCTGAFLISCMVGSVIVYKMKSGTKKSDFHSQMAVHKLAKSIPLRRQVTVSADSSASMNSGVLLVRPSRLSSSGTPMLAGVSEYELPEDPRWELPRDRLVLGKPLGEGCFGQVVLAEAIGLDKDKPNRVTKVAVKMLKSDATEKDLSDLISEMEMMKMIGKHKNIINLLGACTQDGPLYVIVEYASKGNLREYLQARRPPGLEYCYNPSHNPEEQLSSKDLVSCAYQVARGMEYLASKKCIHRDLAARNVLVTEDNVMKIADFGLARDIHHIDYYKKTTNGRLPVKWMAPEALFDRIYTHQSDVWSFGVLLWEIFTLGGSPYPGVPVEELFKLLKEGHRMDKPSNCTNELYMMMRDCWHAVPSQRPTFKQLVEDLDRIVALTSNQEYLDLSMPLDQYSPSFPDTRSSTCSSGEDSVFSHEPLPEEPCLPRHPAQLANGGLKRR
Sequence of human FGFR1c plus KLB (Q86Z14 whole entry): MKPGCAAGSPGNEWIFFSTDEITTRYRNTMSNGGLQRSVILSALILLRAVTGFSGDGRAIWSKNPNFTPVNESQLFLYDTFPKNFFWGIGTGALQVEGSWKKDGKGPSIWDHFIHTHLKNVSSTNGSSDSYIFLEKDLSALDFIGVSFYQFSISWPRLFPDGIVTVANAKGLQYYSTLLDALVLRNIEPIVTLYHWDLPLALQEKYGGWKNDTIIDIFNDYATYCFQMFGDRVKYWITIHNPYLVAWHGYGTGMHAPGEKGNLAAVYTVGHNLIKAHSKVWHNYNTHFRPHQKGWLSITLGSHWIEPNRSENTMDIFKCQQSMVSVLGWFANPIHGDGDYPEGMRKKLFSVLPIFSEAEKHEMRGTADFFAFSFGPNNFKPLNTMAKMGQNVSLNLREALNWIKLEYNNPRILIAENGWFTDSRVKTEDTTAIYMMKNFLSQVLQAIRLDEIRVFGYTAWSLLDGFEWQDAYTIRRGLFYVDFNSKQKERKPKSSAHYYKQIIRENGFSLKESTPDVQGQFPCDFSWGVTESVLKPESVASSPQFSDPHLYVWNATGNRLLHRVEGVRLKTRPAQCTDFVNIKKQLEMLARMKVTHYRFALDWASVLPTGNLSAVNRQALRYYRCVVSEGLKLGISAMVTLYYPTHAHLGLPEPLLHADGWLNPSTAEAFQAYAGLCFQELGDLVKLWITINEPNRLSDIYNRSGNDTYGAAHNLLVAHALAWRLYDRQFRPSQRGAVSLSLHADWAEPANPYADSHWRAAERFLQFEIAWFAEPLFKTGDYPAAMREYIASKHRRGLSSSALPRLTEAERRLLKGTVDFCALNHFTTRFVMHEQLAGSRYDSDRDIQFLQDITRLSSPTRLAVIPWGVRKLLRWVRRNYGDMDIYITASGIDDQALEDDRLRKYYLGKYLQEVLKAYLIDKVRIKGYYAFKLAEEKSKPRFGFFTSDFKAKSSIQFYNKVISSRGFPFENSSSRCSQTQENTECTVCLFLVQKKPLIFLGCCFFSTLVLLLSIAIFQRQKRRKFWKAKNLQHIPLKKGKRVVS

EC50 (human FGFR1c plus KLB): 4.3 nM
EC50 (MAP kinase ERK1/2): 0.135 nM
B1: FGF21 wild type: Native Human FGF-21 without signal sequence (protein)
chain: HPIPDSSPLLQPGGQVRQRYLYTDDAQQTEAHLEIREDGTVGGAADQSPESLLQLKALKPGVIQILGVKTSRFLCQRPDGALYGSLHFDPEACSFRELLLEDGYNVYQSEAHGLPLHLPGNKSPHRDPAPRGPARFLPLPGLPPAPPEPPGILAPQPPDVGSSDPLSMVGPSQGRSPSYAS
modifications: FGF-21 mutein H29-S209
